Test results from the Immune Epitope Database (IEDB).

Assays:
Assay in all cases: IEDB peptide-MHC binding, purified MHC/direct/fluorescence; filed as Kd, often an IC50 or EC50 that approximates it; ≥ and ≤ were set here for values at or beyond the usual limits of such assays
HLA-A*01:01 = molecular target: HLA-A*01:01
HLA-A*02:01 = molecular target: HLA-A*02:01
HLA-A*03:01 = molecular target: HLA-A*03:01
HLA-A*11:01 = molecular target: HLA-A*11:01
HLA-A*24:02 = molecular target: HLA-A*24:02
HLA-A*31:01 = molecular target: HLA-A*31:01
HLA-A*69:01 = molecular target: HLA-A*69:01
HLA-B*07:02 = molecular target: HLA-B*07:02
HLA-B*08:02 = conditions: source organism: Giardia lamblia ATCC 50803
HLA-B*15:01 = molecular target: HLA-B*15:01
HLA-B*15:09 = molecular target: HLA-B*15:09
HLA-B*27:05 = molecular target: HLA-B*27:05
HLA-B*40:01 = molecular target: HLA-B*40:01
HLA-B*44:02 = molecular target: HLA-B*44:02
HLA-B*58:01 = molecular target: HLA-B*58:01
HLA-C*05:01 = conditions: source organism: Chlamydia trachomatis
HLA-A*26:01 = molecular target: HLA-A*26:01
HLA-B*08:01 = molecular target: HLA-B*08:01
HLA-B*46:01 = molecular target: HLA-B*46:01
HLA-A*30:01 = conditions: source organism: Vibrio parahaemolyticus
HLA-B*73:01 = molecular target: HLA-B*73:01
HLA-A*02:03 = conditions: source organism: Vibrio parahaemolyticus AQ3810
HLA-A*02:11 = conditions: source organism: Vibrio parahaemolyticus AQ3810
HLA-A*02:12 = conditions: source organism: Vibrio parahaemolyticus AQ3810
HLA-A*02:16 = conditions: source organism: Vibrio parahaemolyticus AQ3810
HLA-A*02:19 = conditions: source organism: Vibrio parahaemolyticus AQ3810
HLA-A*24:03 = conditions: source organism: Vibrio parahaemolyticus AQ3810
HLA-B*18:01 = conditions: source organism: Vibrio parahaemolyticus AQ3810
HLA-B*27:03 = conditions: source organism: Vibrio parahaemolyticus AQ3810
HLA-B*39:01 = conditions: source organism: Vibrio parahaemolyticus AQ3810
HLA-B*51:01 = conditions: source organism: Vibrio parahaemolyticus AQ3810
HLA-B*57:01 = conditions: source organism: Vibrio parahaemolyticus AQ3810
HLA-B*48:01 = conditions: source organism: Brucella suis
[1] = source organism: Giardia lamblia ATCC 50803
[2] = source organism: Influenza A virus (A/duck/Mongolia/47/2001(H7N1))
[3] = source organism: Influenza A virus(A/swine/Henan/3/2004(H9N2))
[4] = source organism: Vibrio parahaemolyticus
[5] = source organism: Vibrio parahaemolyticus AQ3810

## DEKPKVMEG
HLA-A*01:01; [1]
  Kd: ≥ 20 µM
HLA-A*02:01; [1]
  Kd: ≥ 20 µM
HLA-A*03:01; [1]
  Kd: ≥ 20 µM
HLA-A*11:01; [1]
  Kd: ≥ 20 µM
HLA-A*24:02; [1]
  Kd: ≥ 20 µM
HLA-A*31:01; [1]
  Kd: ≥ 20 µM
HLA-A*69:01; [1]
  Kd: ≥ 20 µM
HLA-B*07:02; [1]
  Kd: ≥ 20 µM
HLA-B*08:02
  Kd: ≥ 20 µM
HLA-B*15:01; [1]
  Kd: ≥ 20 µM
HLA-B*15:09; [1]
  Kd: ≥ 20 µM
HLA-B*27:05; [1]
  Kd: ≥ 20 µM
HLA-B*40:01; [1]
  Kd: ≥ 20 µM
HLA-B*44:02; [1]
  Kd: ≥ 20 µM
HLA-B*58:01; [1]
  Kd: ≥ 20 µM

## SLDQSVVEL
HLA-C*05:01
  Kd: 0.051 µM

## NESGRLIDF
HLA-A*01:01; [2]
  Kd: ≥ 20 µM
HLA-A*02:01; [2]
  Kd: ≥ 20 µM
HLA-A*03:01; [2]
  Kd: ≥ 20 µM
HLA-A*11:01; [2]
  Kd: ≥ 20 µM
HLA-A*24:02; [2]
  Kd: ≥ 20 µM
HLA-A*26:01; [3]
  Kd: ≥ 20 µM
HLA-A*31:01; [2]
  Kd: ≥ 20 µM
HLA-A*69:01; [2]
  Kd: ≥ 20 µM
HLA-B*07:02; [2]
  Kd: ≥ 20 µM
HLA-B*08:01; [2]
  Kd: ≥ 20 µM
HLA-B*15:01; [2]
  Kd: ≥ 20 µM
HLA-B*15:09; [3]
  Kd: ≥ 20 µM
HLA-B*27:05; [2]
  Kd: ≥ 20 µM
HLA-B*40:01; source organism: Influenza A virus (A/Puerto Rico/8/34/Mount Sinai(H1N1))
  Kd: ≥ 5 µM
HLA-B*46:01; [2]
  Kd: ≥ 20 µM
HLA-B*58:01; [2]
  Kd: ≥ 20 µM

## GRNSRFPDK
HLA-A*01:01; [4]
  Kd: ≥ 20 µM
HLA-A*02:01; [4]
  Kd: ≥ 20 µM
HLA-A*03:01; [4]
  Kd: ≥ 20 µM
HLA-A*26:01; [4]
  Kd: ≥ 20 µM
HLA-A*30:01
  Kd: ≥ 5 µM
HLA-A*31:01; [4]
  Kd: ≥ 20 µM
HLA-A*69:01; [4]
  Kd: ≥ 20 µM
HLA-B*07:02; [4]
  Kd: ≥ 20 µM
HLA-B*08:01; [4]
  Kd: ≥ 20 µM
HLA-B*15:01; [4]
  Kd: ≥ 20 µM
HLA-B*27:05; [4]
  Kd: 1.04 µM
HLA-B*40:01; [4]
  Kd: ≥ 20 µM
HLA-B*44:02; [4]
  Kd: ≥ 20 µM
HLA-B*58:01; [4]
  Kd: ≥ 20 µM
HLA-B*73:01; [5]
  Kd: ≥ 20 µM

## EPFLVQFWI
HLA-A*02:01; [5]
  Kd: ≥ 20 µM
HLA-A*02:03
  Kd: ≥ 20 µM
HLA-A*02:11
  Kd: ≥ 20 µM
HLA-A*02:12
  Kd: ≥ 20 µM
HLA-A*02:16
  Kd: ≥ 20 µM
HLA-A*02:19
  Kd: ≥ 20 µM
HLA-A*03:01; [5]
  Kd: ≥ 20 µM
HLA-A*24:03
  Kd: ≥ 20 µM
HLA-A*26:01; [5]
  Kd: ≥ 20 µM
HLA-B*15:01; [5]
  Kd: ≥ 20 µM
HLA-B*18:01
  Kd: ≥ 20 µM
HLA-B*27:03
  Kd: ≥ 20 µM
HLA-B*39:01
  Kd: ≥ 20 µM
HLA-B*46:01; [5]
  Kd: ≥ 20 µM
HLA-B*51:01
  Kd: 0.193 µM
HLA-B*57:01
  Kd: ≥ 20 µM

## RRTKLPLTK
HLA-B*27:05; source organism: Brucella suis
  Kd: 0.0792 µM
HLA-B*48:01
  Kd: ≥ 20 µM
HLA-B*73:01; source organism: Brucella suis 1330
  Kd: ≥ 20 µM
